Measured values from patent US20170158747A1.

What was measured:
Experiment in all cases: cell-based or functional assay
[1] = target: mouse IL10 receptor on mouse cells (whole blood, colon) (mouse) (UniProt Q61727)
[2] = target: human IL10 receptor (IL10R1/R2 receptor complex) on human whole blood cells (human) (UniProt Q13651)
[3] = target: cynomolgus monkey IL10 receptor on cynomolgus whole blood cells (cynomolgus monkey)

mouse IL10 receptor on mouse cells (whole blood, colon) (mouse), sequence (Q61727 17-575, chain 1 of 2): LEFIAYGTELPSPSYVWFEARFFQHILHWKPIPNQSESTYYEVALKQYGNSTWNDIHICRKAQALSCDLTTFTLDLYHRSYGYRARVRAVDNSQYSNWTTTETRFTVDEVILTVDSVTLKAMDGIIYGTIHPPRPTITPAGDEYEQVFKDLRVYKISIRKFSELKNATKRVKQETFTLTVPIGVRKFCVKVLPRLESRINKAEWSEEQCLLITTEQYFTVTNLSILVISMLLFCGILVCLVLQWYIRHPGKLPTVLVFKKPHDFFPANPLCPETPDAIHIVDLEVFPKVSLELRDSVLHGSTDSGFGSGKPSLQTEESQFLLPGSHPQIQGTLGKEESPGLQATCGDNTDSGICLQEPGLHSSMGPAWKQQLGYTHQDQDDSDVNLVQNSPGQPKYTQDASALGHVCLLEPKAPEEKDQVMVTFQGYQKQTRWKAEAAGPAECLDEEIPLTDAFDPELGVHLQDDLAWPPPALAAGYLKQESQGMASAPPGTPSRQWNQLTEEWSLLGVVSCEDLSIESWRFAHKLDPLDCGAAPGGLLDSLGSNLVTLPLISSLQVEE
mouse IL10 receptor on mouse cells (whole blood, colon) (mouse), sequence (Q61190 20-349, chain 2 of 2, further chain): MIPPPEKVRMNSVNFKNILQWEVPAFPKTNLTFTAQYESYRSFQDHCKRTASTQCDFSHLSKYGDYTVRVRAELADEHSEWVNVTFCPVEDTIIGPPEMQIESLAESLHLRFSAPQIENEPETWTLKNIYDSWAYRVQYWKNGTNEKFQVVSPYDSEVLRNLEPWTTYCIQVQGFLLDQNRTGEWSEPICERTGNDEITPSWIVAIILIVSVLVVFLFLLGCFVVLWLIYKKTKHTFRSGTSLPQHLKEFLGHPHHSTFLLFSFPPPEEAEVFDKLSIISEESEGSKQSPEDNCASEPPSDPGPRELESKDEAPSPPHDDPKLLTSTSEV
human IL10 receptor (IL10R1/R2 receptor complex) on human whole blood cells (human), sequence (Q13651 22-578, chain 1 of 2): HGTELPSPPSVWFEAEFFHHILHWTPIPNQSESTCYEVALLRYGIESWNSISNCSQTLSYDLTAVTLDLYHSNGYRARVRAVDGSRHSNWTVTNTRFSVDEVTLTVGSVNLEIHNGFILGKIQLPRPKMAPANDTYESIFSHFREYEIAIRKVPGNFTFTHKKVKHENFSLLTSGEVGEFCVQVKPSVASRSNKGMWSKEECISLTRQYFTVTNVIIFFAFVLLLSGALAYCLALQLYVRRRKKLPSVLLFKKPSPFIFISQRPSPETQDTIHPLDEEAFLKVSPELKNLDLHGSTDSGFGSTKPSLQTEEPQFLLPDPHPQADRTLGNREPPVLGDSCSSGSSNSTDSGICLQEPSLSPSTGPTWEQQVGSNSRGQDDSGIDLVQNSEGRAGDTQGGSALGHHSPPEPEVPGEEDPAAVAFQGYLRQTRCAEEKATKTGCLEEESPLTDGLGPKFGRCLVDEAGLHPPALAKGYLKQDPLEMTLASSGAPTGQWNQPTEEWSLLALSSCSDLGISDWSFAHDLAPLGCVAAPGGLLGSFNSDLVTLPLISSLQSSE
human IL10 receptor (IL10R1/R2 receptor complex) on human whole blood cells (human), sequence (Q08334 20-325, chain 2 of 2, further chain): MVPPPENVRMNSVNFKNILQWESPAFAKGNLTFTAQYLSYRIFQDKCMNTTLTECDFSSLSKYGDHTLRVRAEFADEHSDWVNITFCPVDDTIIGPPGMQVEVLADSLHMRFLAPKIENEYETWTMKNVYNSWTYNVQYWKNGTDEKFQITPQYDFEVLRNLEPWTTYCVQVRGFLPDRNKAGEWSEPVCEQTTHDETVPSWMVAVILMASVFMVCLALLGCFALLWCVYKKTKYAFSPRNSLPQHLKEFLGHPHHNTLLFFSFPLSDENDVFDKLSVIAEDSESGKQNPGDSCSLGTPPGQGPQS

IC30, inhibition of LPS-induced TNFα production, ex vivo mouse whole blood [1]: 0.57 pM
IC50, inhibition of LPS-induced TNFα production, ex vivo mouse whole blood [1]: 1.7 pM
IC90, inhibition of LPS-induced TNFα production, ex vivo mouse whole blood [1]: 15 pM
IC30, inhibition of LPS-induced TNFα production, ex vivo human whole blood [2]: 1.3 pM
IC50, inhibition of LPS-induced TNFα production, ex vivo human whole blood [2]: 2.8 pM
IC90, inhibition of LPS-induced TNFα production, ex vivo human whole blood [2]: 22.8 pM
IC30, inhibition of LPS-induced TNFα production, ex vivo cynomolgus whole blood [3]: 0.44 pM
IC50, inhibition of LPS-induced TNFα production, ex vivo cynomolgus whole blood [3]: 0.65 pM
IC90, inhibition of LPS-induced TNFα production, ex vivo cynomolgus whole blood [3]: 1.9 pM
Substance: recombinant human IL10 (from UniProt P22301 19-178) (ligand)
